Measured values from a protein production outcome set (Wang et al. 2014).

Assay: label from the status in PepcDB records

Row | Sequence | protein production
1 | MDPNVITVTSYANIAIIKYWGKENQAKMIPSTSSISLTLENMFTTTSVSFLPDTATSDQFYINGILQNDEEHTKISAIIDQFRQPGQAFVKMETQNNMPTAAGLSSSSSGLSALVKACDQLFDTQLDQKALAQKAKFASGSSSRSFFGPVAAWDKDSGAIYKVETDLKMAMIMLVLNAAKKPISSREGMKLCRDTSTTFDQWVEQSAIDYQHMLTYLKTNNFEKVGQLTEANALAMHATTKTANPPFSYLTKESYQAMEAVKELRQEGFACYFTMDAGPNVKVLCLEKDLAQLAERLGKNYRIIVSKTKDLPDV | not failed
2 | PATPKKIKKEKKVPKLPRKDYWQAAMVIIISSIVLIASLFMISPLSRQKEITVSGNKNAIESQLIEELGIKKSDYLTTLLFQANRFERNLKSKDKWVKEAKLVYHFPNHFTLRVKEYRIIAYRQTDKGYVPILENGTRVDTVNASELPGSFVTINLDQEKEVRELVQKLAKLDKSLVGSIKVISSVNSSSTKDLLLLEMKDNNSVRVPLSEIDTKLPYYSKIKKNLTDGSIVDMEVGIYSTTADIEASIAEHKTTATTESSENS | failed
3 | MGHHHHHHSHGQQSVSNKLLAWSGVLEWQEKPKPASVDANTKLTRSLPCQVYVNHGENLKTEQWPQKLIMQLIPQQLLTTLGPLFRNSRMVQFHFTNKDLESLKGLYRIMGNGFAGCVHFPHTAPCEVRVLMLLYSSKKKIFMGLIPYDQSGFVNGIRQVITN | not failed
4 | MNLGAAEEESAQEIHLPADINWEMLDKSKFFVLGAALFSGVSGALYPAVLMKTRQQVCHSQGSCIKTAFTLVRHEGLRGLYRGFGTSLMGTIPARALYMTALEVTKSNVGSAAVSLGLTEAKAAAVANAVGGLSAAMAAQLVWTPVDVVSQRLMVQGSAGLVNASRCNYVNGFDAFRKIVRADGPKGLYRGFGISILTYAPSNAVWWASYSVAQRMVWGGIGCYVCKKDEESGNNSTTMKPDSKTIMAVQGVSAAIAGSVSALITMPLDTIKTRLQVLDGEDSSNNGKRGPSIGQTVRNLVREGGWTACYRGLGPRCASMSMSATTMITTYEFLKRLSAKNHDGFYSKS | failed
5 | MIESVLLLVSGLPGSGKSTLARGMAEALAWPCLDKDDFLEALFDARGIGDAAWRRALSREADSRFLAALQAAPRAVACSWWRHPRGEGGSGTPIGGLARPGRLVLELHCRCPAELAAARFARRVRHPGHLDAQRDPGALSLQLRRAERLGPLGLGQCLILDASVQTDLSGALAWTRDALAAGALADPPRHPLEHHHHHH | failed
6 | MMFFQVHPHLTDLVIRTLQATWQQFPWLGQEDIALTLLVYPPPIPVNTGGALTAAEFWQYLIPGAHYRGDVPMYPASVVKLFYLVACHEWLHSGMLQPDAELERAMRDMIVDSSNDATSLVVDMLTGTTSGPVLPPEPFRTWQYQRNIVNRYFQSLGWPELTQINVNQKTWCEGPYGREQEFVGRDRQNANRLTTNATAKLIHSIVGGVAVSASASQGMMELMERSLDPELLAQDPENQVQGFLGEGLPPGAKLWSKAGLTSWVRHDAAYIELPDRCPYTLVVFMENSTASKNTEVLPFISRQIASGIPTLEGAGVL | failed
7 | MNLETIPSGELTVSNQRSISRLVAQAGQMLLAHGAESTLVCDIMRRIGLACGVHEVAVALSANALVVTTVMDGHCITTTRSCADRGINMRVITQIQRICIMMERGLLDAAMAQKKLNTISPERYNRWLVVLMIGLSCAAFSHLAGGDWGVFIMTFLASAGGMIVRQEIGHRHFNPLLNFAATAFVTTLISAQAEIYQIGNLPTVAMASSVLMLVPGFPLINSVADMLKGHINMGIARFVMASLLTLATCLGIVAAMSVTGIWGWAI | failed
8 | ESELACVIALQDITLRVQETERLEKMLEHLPVCMVIMNQNDEVEQINQTGIELLGFERDEIVGNPVDLFIPQEQVESHKALLKKFFQEETVIDTRSLERDFKVKHKSGKLIEIQAVYTPVHFHN | failed
9 | MGVLQRFERRLEGMIEGTFARAFKSELQPVEVASNVQREMDERAAIVAQGRTLVPNDFVVELSASDRERLAVYADNLGQELSKLAREYATEQGYSFVGPVRVRFETADDLQTGRFRVRSAVIRGDTVKDGEIIKPVTDHPRRGSVIPGRPRLLLSPGGAAADGSLTAQGAQQAYELTSEVTLLGRGTDCDLRLVDNGVSRHHAEIRLEGNEAILVDLNSTNGTFVNGQQVQRARLVDGSRISLGRTTMTFRRD | failed
10 | MHLTKTWLAQLPLTDIQQVQPVSGGDINAAFQIITRHHQYFLKVQPHNDVTFFDHEVAGLRLLGAVTKTPRVIASGTIATDGYLLLDWLATGTGSQSALGAAVAKVHHQHHAQFGLDHDFTAGKLPKINHWQTDWATFYTQQRLDVLVNLAKEHHLWSETREMHYHRLRQQLLQDSHMHTVKPSLLHGDLWSGNYLFDTTGTPVLIDPDVFYGDREMDLAMTTIFGGFDTDFYQAYQAAYPVAPGMQDRLPSYQLYYLLAHLNLFGETYGPAVDRILMQY | failed
11 | EKAVLIGEKEADITFVTWGSQKGPILDVIEDLKEEGISANLLYLKMFSPFPTEFVKNVLSSANLVIDVESNYTAQAAQMIKLYTGIDIKNKILKYNGRHMTEDEILKSAKEILNKESLMVVLEDGS | failed
12 | MTMPHAFSRQPATHRSGRFPRSRALLLASLLAAGLASLPAWAAAPATRTAQAAPEGSSRAAVQLEKSRPRGNLLATDRTDLPAVPLSEDIMYRVLASEVSLQRGLVEPAYRTYLGLAQDTRDPRFAQRATEIAFLTRSPSQALTAARLWVELAPTSMPARQVQQLLMVATGQWSEVEPMLQAQLNKVSPGQRAEAILQLQQQMSKSNDPAGAVSALQRLTTHDAQRPETHLALARAKVVAKDNTGALSELDTALKLRPGYEDAAILAAELRADSDPDAAISGLRTFLKAAPASIDGHLALARMYLVRNQNDQARAEFEALRKIAPTDPRIPLALGLLNLQQRQYDSAEQYLKEYVAQAAKSPSLSPEPGYQGLAQVAEEKRDYAGAITWLDKIAGASNGDGDGQVALAAGIKRAQLLGKLRRIDEAQQAFDELIADTEDVPDGPRRQALMDGIRQAEVGMLMDAKAYGRARARVNDLLRTSPDSVEYTYQLSMLEEHDGHYDNMETLLRKVIDLRPGQAIGYNALGYSLADRNIRLQEAQELLEKAVSLAPDDPYIADSLGWVKYRRGDLPAATDILRKAWAAAPQAEIGAHLGEVLWQSGKQDDARKVWTEAAKLDINDTTLRETLHRFSQPLPDAPTSAN | failed
13 | MDGHSKNHCSPVGRYFPMPLDRRFLPGWLAFLALLAICVFPLMAKAAGVPALVGRVNDYAGMISPQARSIIDQKLKALEAEDGTQVAVLTVPSLDGQPIEEFSIKVAEAWKIGQKGRDNGILFIVSKNDRAMRIEVGYGLEGRLTDLQAGRITRDVIKPAFKSGDYDKGFIDGVDAIVASVKGEYKAPKRKNDDGAPSPFLIFIILFVLFVASRFMRFFGGGGGPFGFGGPGGGFFPGGGFGGGGGSSDDGGFSGGGGDFGGGGASDNW | failed
14 | GGGTRFALVAGTTETAGRAGISAAGADPELMSVTPAADAELVTYGTPVRTDVTPVSPSGCPTPALVTRAAREVLGFDVTVVDGGLAEKTGAPTVSVGARPGKDIAEQDPVSTAHGAFAAARQFGQSLPADELYLGETIPGGTTTALGVLRALGEDGMVSSSLPENPTAQKSEVVAEGLQASSLEPGDAANEPKRAVRRMGDPVLATLAGLTAGAVESDTAVTLAGGSQCVAVAALVRHGGYEGPLGLATTSYVADDESADVRASVDRLDLDLTVTDPGFDRSDHVAMERFVAGEAKEGVGMGGALALADRAGI | failed
15 | MSSKPLYTILTVFNPIFIYFTKRDNLHTLRFKKDRAIKISEELFPDELCERCGRCCILHAYKTEDGIKTIYCEHLDPETKLCKVYKDRFKHRCLTVMEGILAGVFPKDCPYVKNLKNYEEPWFYRHLRDLEHHHHHH | failed
16 | MVAAIIAGAAVAAAAYAGKYGIEAWQAFKLRPVRPRMRKFYEGGFQATMNRREAALILGVRESVAAEKVKEAHRRVMVANHPDAGGSHYLASKINEAKDMMLGKTKNSGSAF | failed
17 | MILQSTSLFCKYINNCRYINREIVATLKASPQGLARIKQARSDRGWSVDDFRWLELASEILGVCWQENGVLAAGISEGTWKRFLAGKQAINAEAFKAYCQVLGLNWEEVQEGGRTKERKDTGTSRQEKFLSSSHPHTDWGEAPDVSIFYGRSEELDTVKRWVTQENCRLITLLGMGGIGKTTLSVKLAQEIINSEKIYLSQSPEYIIWRSLRNAPPVEDILAELIQFLSGQQETNLSNHLQGRISLLLKNLRSSRCLIILDNAESILQAGDRNGRYRAGCEGYGQFLQCIAETSHQSCLILTSREKPQGLAKYEGDSLPVRSLPLTGLQEQEGRELFNVKGKFAASCDQWQVLISRYGGNPLALKIVASSIRDFFDGDVSQFLEVSQQGTFIFDDIRDLLDQQFQRLTTLEREIMYWLAINREPVTLAELQADFVANIPPRELLESLSSLQRRSLIEKSAGGFTQQPVVMEYVSNHLIEQVCEEMREWGLVRSRGAEEQRSRGEKIHTQYKLNAALPLTALSTPLFTTHALIKAQAKDYVRESQISLILQPLINQLITEFGSLENISNCLVHILSRLRGKSPQETGYAGGNVLNLLHHAQVDLSGYDFSGLTVWQAYLQGVNLHDVDFANSDLSCCVFTETLGNILSAAFSPEGQLLATCDTDCHVRVWEVKSGKLLLICRGHSNWVRFVVFSPDGEILASCGADENVKLWSVRDGVCIKTLTGHEHEVFSVAFHPDGETLASASGDKTIKLWDIQDGTCLQTLTGHTDWVRCVAFSPDGNTLASSAADHTIKLWDVSQGKCLRTLKSHTGWVRSVAFSADGQTLASGSGDRTIKIWNYHTGECLKTYIGHTNSVYSIAYSPDSKILVSGSGDRTIKLWDCQTHICIKTLHGHTNEVCSVAFSPDGQTLACVSLDQSVRLWNCRTGQCLKAWYGNTDWALPVAFSPDRQILASGSNDKTVKLWDWQTGKYISSLEGHTDFIYGIAFSPDSQTLASASTDSSVRLWNISTGQCFQILLEHTDWVYAVVFHPQGKIIATGSADCTVKLWNISTGQCLKTLSEHSDKILGMAWSPDGQLLASASADQSVRLWDCCTGRCVGILRGHSNRVYSAIFSPNGEIIATCSTDQTVKIWDWQQGKCLKTLTGHTNWVFDIAFSPDGKILASASHDQTVRIWDVNTGKCHHICIGHTHLVSSVAFSPDGEVVASGSQDQTVRIWNVKTGECLQILRAKRLYEGMNITGVTGLTKATIFTLQALGALR | failed
18 | MTYKSLPVAEKIQSYWNRRARLVIVTSFTILCAAATIYFHMILGVEIVFTHLFYIPMVFAAVWFGRRSFIVTAFLGTVLLVTHALASLGGFQDDVMRLSVMFFVNAITVILSESIGESEEALAESEEKYRTIVESARDAIITVDGNGSIVSWNSAAEKIFGYRAAEMMGRHIDTIITEENLEKHDFNRIIDREISIMVTDVEGVRKDGTRVPLEISVFSWNYMDEKFITAVIRDVTERKMAENALIESERKFRAVFDGVEDIITIVEIRENGLPGKYIEVNRAAVEKLGYSRDELLRMTPADMGVSREQSYDIIKNLLRSGKVTFNRTYISRDGRRIPVEVNSRLLELGEMKVAVSVARDITQRLENERRLRESEEKYRSLFDLSPEYILLLDPEDGRILDVNSTLAGTLGIPSEELRGRSIYELEFLSDDVKTEFRSKIEVIERDGTLEPYEMVLTDPYGREYTVRIYNKLIHAEGRECLLIVLNDISDLKRTQSMLEKSLAEKELLLKEIHHRVKNNLMIISSLLSLQSRQAKDRETMDLFRESENRTRSMVLIHERLYRSEDLKNIDLAEYLGRLASEIFRSYSADSRIRLKLEIDELKVDVETAVPLGLIVNELLTNAVKHAFPDGEGTVTVSLRKRNGTVTLEVSDDGAGFPEDIDWESSPSLGLQLVRKPH | failed
19 | MPISEDLKQAIRQRARYICEYCHSPERLSANRFTIDHVIPKSLGGSDAFNNLALACRRCNERRYNFVASIDPQTKTIVAIFNPRQQNWAEHFIWTNRGIIIQGTTTTGRATCIRLDLNDTRYPEEDSIQETRRFWLKTGLHPPIDDPCKNLEHHHHHH | not failed
20 | MNKYFPLAKYKKEKMMFMKLLEGCYKVERLYIYSKRLCKQMEPKSQEEYNIARKQIKKTFDEGWTEADCGGRESCILEIPFVFWSSPNKSNCRRQPKRSYGKKLLYIPLNDLKDDIPYPNSSSEAGKVWKPQ | failed
